From patent publication US20250269048A1 (BIVICTRIX, published 2025)
Numbering of substitutions follows the chain as printed. Read-outs that look alike come from different tables or passages of the source.

How the values were obtained:
[1] = target: T1, human CD33 (human, UniProt P20138 18-259, limits assumed); assay: SPR (Kd); value of the CD33 arm 33-PP-4
T1 construct: The construct is not described

[2] = target: T2, human CD7 (human, UniProt P09564 26-180, limits assumed); assay: SPR (Kd); value of the CD7 arm 7-PP-1 WT
T2 construct: The construct is not described
T2 sequence (looked up): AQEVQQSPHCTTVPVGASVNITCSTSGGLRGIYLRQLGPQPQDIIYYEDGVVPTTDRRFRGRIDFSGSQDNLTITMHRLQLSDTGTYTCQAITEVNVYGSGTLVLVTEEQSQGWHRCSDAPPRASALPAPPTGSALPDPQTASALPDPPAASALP

[3] = target: T2, human CD7; assay: SPR (Kd); value of the CD7 arm 7-PP-13
[4] = target: T1, human CD33; assay: SPR
[5] = target: T3, human CD33 on cells (human, UniProt P20138 18-364); assay: FACS; cells not named
T3 construct: whole, on cells; also called CD33+ cells; MV4.11 (CD7-/CD33+)
T3 sequence (P20138 18-364): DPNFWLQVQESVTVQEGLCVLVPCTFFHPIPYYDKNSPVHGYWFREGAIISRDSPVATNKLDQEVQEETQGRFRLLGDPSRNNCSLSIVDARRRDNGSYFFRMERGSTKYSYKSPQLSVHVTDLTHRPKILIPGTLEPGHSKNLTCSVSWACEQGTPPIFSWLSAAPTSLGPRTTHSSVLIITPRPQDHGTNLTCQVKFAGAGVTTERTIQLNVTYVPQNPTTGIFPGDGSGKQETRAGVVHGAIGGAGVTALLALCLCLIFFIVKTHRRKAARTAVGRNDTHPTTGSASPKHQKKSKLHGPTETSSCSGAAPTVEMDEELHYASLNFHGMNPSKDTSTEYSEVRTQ

[6] = target: T2, human CD7; assay: SPR (Kd); value of the CD7 arm 7-PP-3
[7] = target: T1, human CD33; assay: SPR (Kd); value of the CD33 arm 33-PP-1 WT
[8] = target: T2, human CD7; assay: SPR (Kd); value of the CD7 arm 7-PP-8
[9] = target: T1, human CD33; assay: SPR; reference 33-PP-1 WT
[10] = target: T2, human CD7; assay: SPR (Kd); value of the CD7 arm 7-PP-7
[11] = target: T2, human CD7; assay: SPR (Kd); value of the CD7 arm 7-PP-6
[12] = target: T1, human CD33; assay: SPR (Kd); value of the CD33 arm 33-PP-7
[13] = target: T2, human CD7; assay: SPR (Kd); value of the CD7 arm 7-PP-2
[14] = target: T2, human CD7; assay: SPR
[15] = target: T4, human CD7 on cells (human, UniProt P09564 26-240); assay: cell capt. exp.; set-up: unit not given here
T4 sequence (looked up): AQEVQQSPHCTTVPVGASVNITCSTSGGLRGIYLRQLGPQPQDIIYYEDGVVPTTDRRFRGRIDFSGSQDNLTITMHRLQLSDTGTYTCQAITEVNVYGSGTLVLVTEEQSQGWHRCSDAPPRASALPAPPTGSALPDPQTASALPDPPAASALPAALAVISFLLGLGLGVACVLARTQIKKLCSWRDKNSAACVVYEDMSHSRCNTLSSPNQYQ

[16] = target: T4, human CD7 on cells; assay: FACS; cells not named
[17] = target: T2, human CD7; assay: SPR; reference 7-AA-WT
[18] = target: T2, human CD7; assay: SPR; reference 7-PP-1 WT
[19] = target: T4, human CD7 on cells; assay: FACS; reference 7-PP-1 WT

T1 sequence (P20138 18-259 limits assumed): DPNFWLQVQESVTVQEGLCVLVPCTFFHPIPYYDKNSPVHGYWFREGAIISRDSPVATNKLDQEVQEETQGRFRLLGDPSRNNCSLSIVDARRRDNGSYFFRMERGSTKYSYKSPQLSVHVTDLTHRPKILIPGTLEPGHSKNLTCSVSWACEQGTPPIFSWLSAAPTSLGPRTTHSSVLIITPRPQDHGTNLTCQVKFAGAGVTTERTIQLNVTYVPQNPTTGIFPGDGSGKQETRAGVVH

B1: BVX101 (bispecific antibody)
heavy: QVQLQESGAELVKPGASVKLSCKASGYTFTSYWMHWVKQRPGQGLEWIGKINPSNGRTNYNEKFKSKATLTVDKSSSTAYMQLSSLTSEDSAVYYCARGGVYYDLYYYALDYWGQGTTVTVSSASTKGPSVFPLAPSSKSTSGGTAALGCLVKDYFPEPVTVSWNSGALTSGVHTFPAVLQSSGLYSLSSVVTVPSSSLGTQTYCCNVNHKPSNTKVDKKVEPKSCDKT
light: DIELTQSPATLSVTPGDSVSLSCRASQSISNNLHWYQQKSHESPRLLIKSASQSISGIPSRFSGSGSGTDFTLSINSVETEDFGMYFCQQSNSWPYTFGGGTKLEIKRTVAAPSVFIFPPSDEQLKSGTASVVCLLNNFYPREAKVQWKVDNALQSGNSQESVTEQDSKDSTYSLSSTLTLSKADYEKHKVYACEVTHQGLSSPVTKSFNRGEC
VH: EVQLVQSGAEVKKPGSSVKVSCKASGYTITDSNIHWVRQAPGQSLEWIGYIYPYNGGTDYNQKFKNRATLTVDNPTNTAYMELSSLRSEDTAFYYCVNGNPYLAYWGQGTLVTVSS
VL: DIQLTQSPSTLSASVGDRVTIICRASESLDNYGIRFLTWFQQKPGKAPKLLMYAASNQGSGVPSRFSGSGSGTEFTLTISSLQPDDFATYYCQQTKEVPWSFGQGTKLEIK
notes: bi-Fab; also called CD33-PP-4/CD7-PP-1 WT
In the case of B1, the “Fold reduction in binding affinity vs 33-PP-1 WT” value (shortened to “Fold reduction … vs 33-PP-1 WT”) [1] is reported as 38.8 fold and the “Fold reduction in binding affinity vs 7-PP-1 WT” value (shortened to “Fold reduction … vs 7-PP-1 WT”) [2] is reported as 0 fold.

B2: BVX161 (bispecific antibody)
heavy: B1 heavy with Y108A
light: B1 light
VH: B1 VH
VL: B1 VL
notes: bi-Fab; also called CD33-PP-4/CD7-PP-13
For B2, the “Fold reduction … vs 7-PP-1 WT” value [3] was 20.3 fold and the “Fold reduction … vs 33-PP-1 WT” value [1] was 39 fold.

B3: CD33-PP-1-WT binding arm (Fab, V domains shown)
VH: B1 VH with Y102W
VL: B1 VL
For B3, the Kd [4] was 1.36 nM and the “FACS binding” value [5] was 0.16 nM.

B4: BVX120 (bispecific antibody)
heavy: B1 heavy with R57K
light: B1 light
VH: B1 VH with Y102W
VL: B1 VL
notes: bi-Fab; also called CD33-PP-1 WT/CD7-PP-3
For B4, the “Fold reduction … vs 7-PP-1 WT” value [6] was 9.1 fold and the “Fold reduction … vs 33-PP-1 WT” value [7] was 0 fold.

B5: BVX150 (bispecific antibody)
heavy: B1 heavy with R57K, Y108A
light: B1 light
VH: B1 VH with Y102W
VL: B1 VL
notes: bi-Fab; also called CD33-PP-1 WT/CD7-PP-8
In the case of B5, the “Fold reduction … vs 7-PP-1 WT” value [8] is reported as 64.3 fold and the “Fold reduction … vs 33-PP-1 WT” value [7] is reported as 0 fold.

B6: CD33-PP-7 binding arm (Fab, V domains shown)
VH: B1 VH with Y105A
VL: B1 VL
For B6, the Kd [4] was 92.3 nM, the “FACS binding” value [5] was 464 nM and the “Fold Reduction in binding affinity compared to 33-PP-1 WT (Kd, nM)” value [9] was 67.9 fold.

B7: CD33-PP-4 binding arm (Fab, V domains shown)
VH: B1 VH
VL: B1 VL
In the case of B7, the Kd [4] is reported as 52.7 nM, the “FACS binding” value [5] is reported as 321 nM and the “Fold Reduction in binding affinity compared to 33-PP-1 WT (Kd, nM)” value [9] is reported as 38.8 fold.

B8: BVX140 (bispecific antibody)
heavy: B1 heavy with R57G, Y108A
light: B1 light
VH: B1 VH with Y102W
VL: B1 VL
notes: bi-Fab; also called CD33-PP-1 WT/CD7-PP-7
B8 was tested, and the “Fold reduction … vs 7-PP-1 WT” value [10] was 152 fold and the “Fold reduction … vs 33-PP-1 WT” value [7] was 0 fold.

B9: BVX130 (bispecific antibody)
heavy: B1 heavy with D104A
light: B1 light
VH: B1 VH with Y102W
VL: B1 VL
notes: bi-Fab; also called CD33-PP-1 WT/CD7-PP-6
B9 was tested, and the “Fold reduction … vs 7-PP-1 WT” value [11] was 12.7 fold and the “Fold reduction … vs 33-PP-1 WT” value [7] was 0 fold.

B10: BVX102 (bispecific antibody)
heavy: B1 heavy
light: B1 light
VH: B1 VH with Y105A
VL: B1 VL
notes: bi-Fab; also called CD33-PP-7/CD7-PP-1 WT
For B10, the “Fold reduction … vs 33-PP-1 WT” value [12] was 68 fold and the “Fold reduction … vs 7-PP-1 WT” value [2] was 0 fold.

B11: BVX152 (bispecific antibody)
heavy: B1 heavy with R57K, Y108A
light: B1 light
VH: B1 VH with Y105A
VL: B1 VL
notes: bi-Fab; also called CD33-PP-7/CD7-PP-8
B11 was tested, and the “Fold reduction … vs 7-PP-1 WT” value [8] was 87 fold and the “Fold reduction … vs 33-PP-1 WT” value [12] was 68 fold.

B12: BVX162 (bispecific antibody)
heavy: B1 heavy with Y108A
light: B1 light
VH: B1 VH with Y105A
VL: B1 VL
notes: bi-Fab; also called CD33-PP-7/CD7-PP-13
For B12, the “Fold reduction … vs 7-PP-1 WT” value [3] was 20.3 fold and the “Fold reduction … vs 33-PP-1 WT” value [12] was 68 fold.

B13: BVX110 (bispecific antibody)
heavy: B1 heavy with R57G
light: B1 light
VH: B1 VH with Y102W
VL: B1 VL
notes: bi-Fab; also called CD33-PP-1 WT/CD7-PP-2
In the case of B13, the “Fold reduction … vs 7-PP-1 WT” value [13] is reported as 21.3 fold and the “Fold reduction … vs 33-PP-1 WT” value [7] is reported as 0 fold.

B14: CD7-PP-13 CD7 binding arm (Fab, V domains shown)
VH: QVQLQESGAELVKPGASVKLSCKASGYTFTSYWMHWVKQRPGQGLEWIGKINPSNGRTNYNEKFKSKATLTVDKSSSTAYMQLSSLTSEDSAVYYCARGGVYYDLYYAALDYWGQGTTVTVSS
VL: DIELTQSPATLSVTPGDSVSLSCRASQSISNNLHWYQQKSHESPRLLIKSASQSISGIPSRFSGSGSGTDFTLSINSVETEDFGMYFCQQSNSWPYTFGGGTKLEIKR
notes: Heavy chain CDR3 Tyr108Ala; also called 7-PP-13 (mut_17-AA-1)
With B14 the Kd [14] was 44.5 nM, the Kd ([14]; record 2) was 72.2 nM and the Affinity from cell capt. exp. [15] was 46. The FACS binding [16] was 28.4, the Fold Reduction in binding affinity compared to WT (Kd) [17] was 17 fold and the “Fold Reduction in binding affinity compared to WT (Kd)” value ([17]; record 2) was 27.5 fold. For the same binder, the “Fold Reduction in binding affinity compared to PP WT (Kd)” value [18] was 20.3 fold and the “FACS fold reduction compared to PP WT” value [19] was 53.2 fold.
